Target: endogenous mTOR (mechanistic target of rapamycin) (mouse (endogenous in brain and MEFs)) (UniProt Q9JLN9)
Experiment: co-IP; anti-mTOR on Protein G beads; whole brain lysates of wild type or Thorase KO mice in buffer A, 1% Triton X-100, with or without 2 mM ADP, ATP or ATPγS, 4 °C; immunoblot

percent dissociated from mTOR (Thorase KO brain): 20%
percent dissociated from mTOR (wild type brain): 80%
Substance: endogenous S6K (from UniProt Q8BSK8 1-525) (enzyme)

— publication PMC9385847
